Experimental data: patent US20250127885A1 (University of Texas, published 2025)
Residue numbers refer to the chain shown, from its start. Numbers in names are those of the source.

T1: HCMV gp34 ectodomain displayed on ExpiCHO cells (human cytomegalovirus (HCMV), UniProt P16809 24-182)
T1 construct: also called gp34-FLAG with a PDGFR anchor; not shown: C-terminal FLAG (M2) tag and PDGFR transmembrane domain
T1 sequence: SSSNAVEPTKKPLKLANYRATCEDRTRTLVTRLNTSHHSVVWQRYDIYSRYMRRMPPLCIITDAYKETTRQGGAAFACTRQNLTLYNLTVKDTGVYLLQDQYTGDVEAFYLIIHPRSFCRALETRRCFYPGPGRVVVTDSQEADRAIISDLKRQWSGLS

B1: anti-gp34 antibody 34-4 with murine IgG2a Fc (antibody, V domains shown)
VH: QVQLQQSGTVLARPGASVKMSCKASGYTFTAYWMHWVKQRPGQGLEWIGAIYPGNSDAGYNQKFKGKAKLTAVTSTSTAYMELSSLANEDSAVYYCTRWGNNSFWGQGTTLTVSS
VL: DIQMTQSPSSMYASLGERVTITCKASQDINSYLTWFQQKPGKSPKTLIYRANRLVDGVPSRFSGSGSGQDYSLTISTLEYEDMGIYYCLQYDEFPPTFGAGTKLELKR
notes: Variable domains on human CL and human CH1 joined to murine IgG2a Fc; also called antibody-mFc; not shown: human CH1 region; murine IgG2a Fc (mFc)
B2: anti-gp34 antibody 34-2 with murine IgG2a Fc (antibody, V domains shown)
VH: QVQLQQSGTELVKPGASVKLSCTASGFNIKDTYMHWVKQRPEQGLEWIGRIDPASDDTKYDPKFQGKAAITADTSSNTAYLQLSSLTSEDTAVYYCSKDGYYAYWGQGTLVTVSA
VL: DIVMTQSPASLAVSLGQRATISCRASESVDSYGNSFMHWYQQKPGQPPKLLIYRASNLESGIPARFSGSGSRTDFTLTINPVEADDVATYYCQQSYEVPRTFGGGTKLEIKR
notes: as for B1
B3: anti-gp34 antibody 34-5 with murine IgG2a Fc (antibody, V domains shown)
VH: QVQLQQSGAELVRPGTSVKVSCKTSGYAFTNYLIEWVKQRPGQGLEWIGVINPGSGGTNYNEKFKGKATLTADKSSSTAYMQLSSLTSDDSAVYFCVLQVGRLAYWGQGTLVTVSA
VL: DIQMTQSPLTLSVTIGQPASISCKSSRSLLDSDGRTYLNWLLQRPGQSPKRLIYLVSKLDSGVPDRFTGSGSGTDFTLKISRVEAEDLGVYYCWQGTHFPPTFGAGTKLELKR
notes: as for B1
B4: soluble wild-type HCMV gp34 ectodomain (receptor)
chain: T1 sequence
notes: Prone to aggregation; SEC-purified for the ELISA; also called WT gp34; wild-type (WT) gp34; not shown: C-terminal FLAG (M2) tag and Strep tag
B5: soluble HCMV gp34 ectodomain with C150S (gp34-M) (receptor)
chain: T1 sequence with C127S
notes: also called gp34 C150S; Soluble gp34 C150S; not shown: C-terminal FLAG (M2) tag and single Strep tag

What was measured:
[1] = target: T1, HCMV gp34 ectodomain displayed on …; experiment: flow cytometry on gp34-transfected ExpiCHO cells, antibody-mFc at 10 ug/mL, anti-mouse Fcγ AF647
Protocol: Then, hCMV gp34 was expressed on the surface of ExpiCHO cells using a mammalian expression plasmid containing a signal sequence, gp34 ectodomain with a C-terminal FLAG tag, and a PDGFR transmembrane domain. ExpiCHO cells were transfected using the gp34 transmembrane construct and cultured for two days at 37° C./8% CO₂. Successful expression of gp34 on the surface was detected by staining transfected and untransfected ExpiCHO cells with a 1:500 dilution of anti-FLAG PE antibody for 1 hour on ice (Agilent Technologies, Catalogue #PJ315-1). […] Fluorescence was detected using a BD Fortessa system.

[2] = target: T2, human IgG1 Fc (no Fab arms) (human, UniProt P0DOX5 230-449 = IgG part); experiment: ELISA, human Fc coated, FLAG-tagged receptor titrated, anti-FLAG (M2)-HRP; curve assigned by paragraph 53 (top line at 10 ug/mL)
T2 construct: also called huFc; hu-Fc

[3] = target: T2, human IgG1 Fc (no Fab arms); experiment: ELISA, human Fc coated, FLAG-tagged receptor titrated, anti-FLAG (M2)-HRP; curve assigned by paragraph 53 (lower line at 10 ug/mL)

| Binder | binding result [1] | also measured |
| --- | --- | --- |
| B1 | binds |  |
| B2 | binds |  |
| B3 | binds |  |
| B4 |  | EC50 (read off the curve) [2]: ~0.1 µg/mL |
| B5 |  | EC50 (read off the curve) [3]: ~0.04 µg/mL |
